Test results reported in PMC8234983, “Unravelling the Complex Denaturant and Thermal-Induced Unfolding Equilibria of Human Phenylalanine Hydroxylase” (International Journal of Molecular Sciences, 2021).

B1: double truncated human phenylalanine hydroxylase (PAHd, Gly103-Thr427; ΔN1-102/ΔC428-452) (domain or fragment, UniProt P00439 103-427, looked up)
chain: GATVHELSRDKKKDTVPWFPRTIQELDRFANQILSYGAELDADHPGFKDPVYRARRKQFADIAYNYRHGQPIPRVEYMEEEKKTWGTVFKTLKSLYKTHACYEYNHIFPLLEKYCGFHEDNIPQLEDVSQFLQTCTGFRLRPVAGLLSSRDFLGGLAFRVFHCTQYIRHGSKPMYTPEPDICHELLGHVPLFSDRSFAQFSQEIGLASLGAPDEYIEKLATIYWFTVEFGLCKQGDSIKAYGAGLLSSFGELQYCLSEKPKLLPLELEKTAIQNYTVTEFQPLYYVAESFNDAKEKVRNFAATIPRPFSVRYDPYTQRIEVLDNT
notes: lacks most of the regulatory and multimerization domains; essentially the catalytic domain; Residues 103-117 are missing in the 1J8T PDB file; also called PAHd(103-427); truncated PAHd
B2: full-length human phenylalanine hydroxylase (PAHt, Met1-Lys452) (enzyme, UniProt P00439 1-452, looked up)
chain: MSTAVLENPGLGRKLSDFGQETSYIEDNCNQNGAISLIFSLKEEVGALAKVLRLFEENDVNLTHIESRPSRLKKDEYEFFTHLDKRSLPALTNIIKILRHDIGATVHELSRDKKKDTVPWFPRTIQELDRFANQILSYGAELDADHPGFKDPVYRARRKQFADIAYNYRHGQPIPRVEYMEEEKKTWGTVFKTLKSLYKTHACYEYNHIFPLLEKYCGFHEDNIPQLEDVSQFLQTCTGFRLRPVAGLLSSRDFLGGLAFRVFHCTQYIRHGSKPMYTPEPDICHELLGHVPLFSDRSFAQFSQEIGLASLGAPDEYIEKLATIYWFTVEFGLCKQGDSIKAYGAGLLSSFGELQYCLSEKPKLLPLELEKTAIQNYTVTEFQPLYYVAESFNDAKEKVRNFAATIPRPFSVRYDPYTQRIEVLDNTQQLKILADSINSEIGILCSALQKIK
notes: human phenylalanine hydroxylase (EC 1.14.16.1), full-length construction, residues Met 1-Lys 452; No Fe(II) was added to the recombinant protein; also called PAHt(1-452); full-length PAH

Assays:
P00439 [1] = test: AUC; sedimentation velocity, 25 °C, 45,000 rpm, 8 µM subunit, incubated overnight in 5.4 M urea; c(s) analysis
P00439 [2] = test: AUC; sedimentation velocity, 25 °C, 45,000 rpm, 8 µM subunit, incubated overnight in 7.4 M urea; c(s) analysis
[3] = molecular target: the molecule itself; test: AUC; sedimentation velocity, 25 °C, 45,000 rpm, 8 µM subunit, 0 M urea (native conditions); c(s) analysis
P00439 [4] = test: as above

| Protein | percent of total protein signal as fast-sedimenting polydisperse species (aggregates) (P00439 [1]) | percent of total signal as aggregates (P00439 [2]) | stoichiometry N [3] | percent of total signal as aggregates (P00439 [4]) |
| --- | --- | --- | --- | --- |
| B1 | from 9.6 S to 92.4 S and accounting for 98.3% of the total protein signal | The remaining 40% of the signal are species with sedimentation coefficients from 5.4 S to 18.8 S representing aggregates | 2 | – |
| B2 | multiple species of fast sedimentation at a broad range of 10.2–27.9 S representing 98% of the total protein signal | The rest of the protein signal at this high urea concentration, 13%, corresponds to aggregates of fast sedimentation | 4 | aggregates (6% total) |
